This series concerns the molecule itself. Put plainly: SDS-PAGE and anti-6xHis immunoblot of Ni-affinity elution fractions. A general note: A western blot detects proteins with antibodies after separation by electrophoresis.

B1: 6xHis tagged PdhR (natural protein)
chain: MAYSKIRQPKLSDVIEQQLEFLILEGTLRPGEKLPPERELAKQFDVSRPSLREAIQRLEAKGLLLRRQGGGTFVQSSLWQSFSDPLVELLSDHPESQYDLLETRHALEGIAAYYAALRSTDEDKERIRELHHAIELAQQSGDLDAESNAVLQYQIAVTEAAHNVVLLHLLRCMEPMLAQNVRQNFELLYSRREMLPLVSSHRTRIFEAIMAGKPEEAREASHRHLAFIEEILLDRSREESRRERSLRRLEQRKN
notes: also called PdhR-his; recombinant PdhR-his; source: E. coli BL21 DE3 (pET21a(+)), purified (Ni2+ chelating column, HisTrap)
As for B1, the “stoichiometry N” value came to 2.

By stoichiometry N is commonly meant the number of molecules, sites or subunits per partner or assembly.

The record behind these values is paper PMC11508082 (PLOS Pathogens, 2024).
